Laboratory results taken from patent US20260224701A1.
Residue numbers refer to the chain shown, from its start.

Assays:
[1] = molecular target: human 4Ig-B7-H3 extracellular domain (human) (UniProt Q5ZPR3); experiment: biolayer interferometry (Octet), antibody captured on the probe, extracellular domain in solution
[2] = molecular target: human 4Ig-B7-H3 extracellular domain (human) (UniProt Q5ZPR3); experiment: biolayer interferometry (Octet); ratio of the KD values against 2Ig-B7-H3 as reference
[3] = molecular target: Human rhB7-H3 (human) (UniProt Q5ZPR3); experiment: SPR (Biacore 8K/T200), purified IgG as ligand, rhB7-H3 as analyte
[4] = molecular target: Human rhB7-H3 (human) (UniProt Q5ZPR3); experiment: SPR (Biacore 8K/T200), Fab-SASA captured on immobilised albumin, B7-H3 as analyte, 1:1 model
[5] = molecular target: Human rhB7-H3 (human) (UniProt Q5ZPR3); experiment: SPR (Biacore 8K/T200), antibody captured via Fc, B7-H3 antigen as analyte at 1.17-75 nM
[6] = molecular target: Porcine 4Ig-B7-H3 extracellular domain (porcine); experiment: biolayer interferometry (Octet), antibody captured on the probe, extracellular domain in solution
Chain of Porcine 4Ig-B7-H3 extracellular domain (porcine) (chain, as listed by the source): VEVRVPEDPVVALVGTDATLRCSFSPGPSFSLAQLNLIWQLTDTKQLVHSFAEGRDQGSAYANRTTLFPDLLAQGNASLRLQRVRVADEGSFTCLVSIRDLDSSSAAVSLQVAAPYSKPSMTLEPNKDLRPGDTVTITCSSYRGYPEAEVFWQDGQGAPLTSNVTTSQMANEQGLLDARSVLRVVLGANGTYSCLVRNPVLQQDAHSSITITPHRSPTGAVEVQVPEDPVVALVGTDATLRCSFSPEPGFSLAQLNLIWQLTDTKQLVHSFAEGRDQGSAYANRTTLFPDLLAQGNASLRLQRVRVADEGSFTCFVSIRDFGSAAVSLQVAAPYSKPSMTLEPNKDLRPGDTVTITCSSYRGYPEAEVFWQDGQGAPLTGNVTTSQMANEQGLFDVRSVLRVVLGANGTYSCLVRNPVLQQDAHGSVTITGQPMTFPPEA

[7] = molecular target: human 2Ig-B7-H3 extracellular domain (human) (UniProt Q5ZPR3); experiment: as above

Chain of human 4Ig-B7-H3 extracellular domain (human) (Q5ZPR3 29-466): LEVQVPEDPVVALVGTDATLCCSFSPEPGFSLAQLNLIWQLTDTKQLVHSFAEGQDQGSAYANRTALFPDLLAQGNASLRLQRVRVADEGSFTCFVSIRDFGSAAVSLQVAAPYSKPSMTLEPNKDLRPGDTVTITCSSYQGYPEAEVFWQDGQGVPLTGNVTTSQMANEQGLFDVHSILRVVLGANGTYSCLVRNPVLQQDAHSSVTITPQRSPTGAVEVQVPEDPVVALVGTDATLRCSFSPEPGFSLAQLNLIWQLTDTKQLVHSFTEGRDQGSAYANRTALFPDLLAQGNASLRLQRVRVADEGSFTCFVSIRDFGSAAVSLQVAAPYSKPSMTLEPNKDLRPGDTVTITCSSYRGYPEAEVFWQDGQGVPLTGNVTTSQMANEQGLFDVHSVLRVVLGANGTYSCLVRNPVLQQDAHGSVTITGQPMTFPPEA

B1: MIL33B-H3-hIgG1 (antibody, V domains shown)
VH: QVQLVQSGAEVKKPGASVKVSCKASGYTFTSYVMHWVRQAPGQRLEWMGYINSYSDGTKYNEKFKGRVTITRDTSASTAYMELSSLRSEDTAVYYCARWGGLGNGAMDYWGQGTLVTVSS
VL: EIVLTQSPATLSLSPGERATLSCSVSSSVNYMHWYQQKPGQAPRRLIYDTSKLASGIPARFSGSGSGTDYTLTISSLEPEDFAVYYCQQWTSNPLTFGQGTKLEIK
Binder B1 has a Kd [1] of 0.121 nM, a selectivity ratio, 4Ig-B7-H3 over 2Ig-B7-H3 [2] of 360 and a Kd [3] of 0.243 nM. For the same binder, the koff [3] was 0.000117 s⁻¹ and the kon [3] was 481000 M⁻¹ s⁻¹.

B2: MIL33B-H2-hIgG1 (antibody, V domains shown)
VH: B1 VH with V68A
VL: B1 VL
Work on B2 yielded a Kd [1] of 0.12 nM, a Kd [3] of 0.226 nM and a koff [3] of 0.000105 s⁻¹. For the same binder, the kon [3] was 464000 M⁻¹ s⁻¹.

B3: AHF15938 Fab-SASA (Fab, V domains shown)
VH: B1 VH with V68A
VL: B1 VL
For B3, the Kd [4] was 0.00804 nM, the koff [4] was 1.97e-06 s⁻¹ and the kon [4] was 245000 M⁻¹ s⁻¹.

B4: AHF15945 Fab-SASA (Fab, V domains shown)
VH: B1 VH with R72S
VL: B1 VL
Work on B4 yielded a Kd [4] of 0.888 nM, a koff [4] of 0.000244 s⁻¹ and a kon [4] of 274000 M⁻¹ s⁻¹.

B5: Grafted Fab-SASA (Fab, V domains shown)
VH: B1 VH
VL: EIVLTQSPATLSLSPGERATLSCSVSSSVNYMHWYQQKPGQAPRLLIYDTSKLASGIPARFSGSGSGTDFTLTISSLEPEDFAVYYCQQWTSNPLTFGQGTKLEIKR
B5 gave a Kd [4] of 28.5 nM, a koff [4] of 0.0117 s⁻¹ and a kon [4] of 413000 M⁻¹ s⁻¹.

B6: AHF15948 Fab-SASA (Fab, V domains shown)
VH: B1 VH
VL: B1 VL
B6 was tested, and the Kd [4] was 0.366 nM, the koff [4] was 9.35e-05 s⁻¹ and the kon [4] was 255000 M⁻¹ s⁻¹.

B7: MIL33B-H1-hIgG1 (antibody, V domains shown)
VH: B1 VH with R72S
VL: B1 VL
B7 was tested, and the Kd [1] was 0.153 nM, the Kd [3] was 0.233 nM and the koff [3] was 0.000139 s⁻¹. The kon [3] was 597000 M⁻¹ s⁻¹.

B8: MIL33B chimeric antibody (full-length IgG) (antibody, V domains shown)
VH: EVQLQQSGPELVKPGASVKMSCKASGYTFTSYVMHWVRQSPGQGLEGIGYINSYSDGTKYNEKFKGKATLTSDKSSSTAYMELSGLTSEDSAVYYCARWGGLGNGAMDYWGQGTSVTVSS
VL: QIVLTQSPAIMSASPGEKVTMTCSVSSSVNYMHWYQQKSGTSPKRWIYDTSKLASGVPARFSASGSGTSYSLTISSMEAEDAATYYCQQWTSNPLTFGAGTKLELKR
Work on B8 yielded a Kd [5] of 0.199 nM, a koff [5] of 0.000121 s⁻¹ and a kon [5] of 609000 M⁻¹ s⁻¹. For the same binder, the Kd [1] was 0.16 nM, the Kd [3] was 0.148 nM and the koff [3] was 7.16e-05 s⁻¹. The kon [3] was 482000 M⁻¹ s⁻¹.

B9: MIL33B-mIgG2a (murine MIL33B antibody) (antibody, from a related filing, V domains shown)
VH: B8 VH
VL: QIVLTQSPAIMSASPGEKVTMTCSVSSSVNYMHWYQQKSGTSPKRWIYDTSKLASGVPARFSASGSGTSYSLTISSMEAEDAATYYCQQWTSNPLTFGAGTKLELK
B9 showed a Kd [6] of 0.102 nM, a Kd [1] of 0.0807 nM and a Kd [7] of 0.781 nM.

B10: Chimeric Fab-SASA (Fab, V domains shown)
VH: B8 VH
VL: B8 VL
B10 gave a Kd [4] of 0.499 nM, a koff [4] of 0.000131 s⁻¹ and a kon [4] of 262000 M⁻¹ s⁻¹.
